According to US20150368311A1 (Sanofi, published 2015):
Non-standard residues stand in square brackets, D forms with d. No end group written: not given here. Ala(4-thiazolyl) = N[C@@H](Cc1cscn1)C(=O)O; 1Nal = N[C@@H](Cc1cccc2ccccc12)C(=O)O; Chg = N[C@H](C(=O)O)C1CCCCC1; Phg = N[C@H](C(=O)O)c1ccccc1; Tle = CC(C)(C)[C@H](N)C(=O)O; Nle = CCCC[C@H](N)C(=O)O

B1: SEQ ID NO: 25 (peptide)
peptide: [Ala(4-thiazolyl)]SQGTFTSD[Tle]SKQ[Nle]ESRRAQEFIEWLLATGPESGAPPPS-OH
modifications: N-terminus assumed
SMILES: CCCC[C@H](NC(=O)[C@H](CCC(N)=O)NC(=O)[C@H](CCCCN)NC(=O)[C@H](CO)NC(=O)[C@@H](NC(=O)[C@H](CC(=O)O)NC(=O)[C@H](CO)NC(=O)[C@@H](NC(=O)[C@H](Cc1ccccc1)NC(=O)[C@@H](NC(=O)CNC(=O)[C@H](CCC(N)=O)NC(=O)[C@H](CO)NC(=O)[C@@H](N)Cc1cscn1)[C@@H](C)O)[C@@H](C)O)C(C)(C)C)C(=O)N[C@@H](CCC(=O)O)C(=O)N[C@@H](CO)C(=O)N[C@@H](CCCNC(=N)N)C(=O)N[C@@H](CCCNC(=N)N)C(=O)N[C@@H](C)C(=O)N[C@@H](CCC(N)=O)C(=O)N[C@@H](CCC(=O)O)C(=O)N[C@@H](Cc1ccccc1)C(=O)N[C@H](C(=O)N[C@@H](CCC(=O)O)C(=O)N[C@@H](Cc1c[nH]c2ccccc12)C(=O)N[C@@H](CC(C)C)C(=O)N[C@@H](CC(C)C)C(=O)N[C@@H](C)C(=O)N[C@H](C(=O)NCC(=O)N1CCC[C@H]1C(=O)N[C@@H](CCC(=O)O)C(=O)N[C@@H](CO)C(=O)NCC(=O)N[C@@H](C)C(=O)N1CCC[C@H]1C(=O)N1CCC[C@H]1C(=O)N1CCC[C@H]1C(=O)N[C@@H](CO)C(=O)O)[C@@H](C)O)[C@@H](C)CC
B2: SEQ ID NO: 22 (peptide)
peptide: [Ala(4-thiazolyl)]SQGTFTSD[1Nal]SKQLESRRAQDFIEWLLATGPESGAPPPS-OH
modifications: N-terminus assumed
SMILES: CC[C@H](C)[C@H](NC(=O)[C@H](Cc1ccccc1)NC(=O)[C@H](CC(=O)O)NC(=O)[C@H](CCC(N)=O)NC(=O)[C@H](C)NC(=O)[C@H](CCCNC(=N)N)NC(=O)[C@H](CCCNC(=N)N)NC(=O)[C@H](CO)NC(=O)[C@H](CCC(=O)O)NC(=O)[C@H](CC(C)C)NC(=O)[C@H](CCC(N)=O)NC(=O)[C@H](CCCCN)NC(=O)[C@H](CO)NC(=O)[C@H](Cc1cccc2ccccc12)NC(=O)[C@H](CC(=O)O)NC(=O)[C@H](CO)NC(=O)[C@@H](NC(=O)[C@H](Cc1ccccc1)NC(=O)[C@@H](NC(=O)CNC(=O)[C@H](CCC(N)=O)NC(=O)[C@H](CO)NC(=O)[C@@H](N)Cc1cscn1)[C@@H](C)O)[C@@H](C)O)C(=O)N[C@@H](CCC(=O)O)C(=O)N[C@@H](Cc1c[nH]c2ccccc12)C(=O)N[C@@H](CC(C)C)C(=O)N[C@@H](CC(C)C)C(=O)N[C@@H](C)C(=O)N[C@H](C(=O)NCC(=O)N1CCC[C@H]1C(=O)N[C@@H](CCC(=O)O)C(=O)N[C@@H](CO)C(=O)NCC(=O)N[C@@H](C)C(=O)N1CCC[C@H]1C(=O)N1CCC[C@H]1C(=O)N1CCC[C@H]1C(=O)N[C@@H](CO)C(=O)O)[C@@H](C)O
B3: SEQ ID NO: 23 (peptide)
peptide: [Ala(4-thiazolyl)]SQGTFTSD[Chg]SKQLESRRAQDFIEWLLATGPESGAPPPS-OH
modifications: N-terminus assumed
SMILES: CC[C@H](C)[C@H](NC(=O)[C@H](Cc1ccccc1)NC(=O)[C@H](CC(=O)O)NC(=O)[C@H](CCC(N)=O)NC(=O)[C@H](C)NC(=O)[C@H](CCCNC(=N)N)NC(=O)[C@H](CCCNC(=N)N)NC(=O)[C@H](CO)NC(=O)[C@H](CCC(=O)O)NC(=O)[C@H](CC(C)C)NC(=O)[C@H](CCC(N)=O)NC(=O)[C@H](CCCCN)NC(=O)[C@H](CO)NC(=O)[C@@H](NC(=O)[C@H](CC(=O)O)NC(=O)[C@H](CO)NC(=O)[C@@H](NC(=O)[C@H](Cc1ccccc1)NC(=O)[C@@H](NC(=O)CNC(=O)[C@H](CCC(N)=O)NC(=O)[C@H](CO)NC(=O)[C@@H](N)Cc1cscn1)[C@@H](C)O)[C@@H](C)O)C1CCCCC1)C(=O)N[C@@H](CCC(=O)O)C(=O)N[C@@H](Cc1c[nH]c2ccccc12)C(=O)N[C@@H](CC(C)C)C(=O)N[C@@H](CC(C)C)C(=O)N[C@@H](C)C(=O)N[C@H](C(=O)NCC(=O)N1CCC[C@H]1C(=O)N[C@@H](CCC(=O)O)C(=O)N[C@@H](CO)C(=O)NCC(=O)N[C@@H](C)C(=O)N1CCC[C@H]1C(=O)N1CCC[C@H]1C(=O)N1CCC[C@H]1C(=O)N[C@@H](CO)C(=O)O)[C@@H](C)O
B4: SEQ ID NO: 24 (peptide)
peptide: [Ala(4-thiazolyl)]SQGTFTSD[Chg]SKQ[Nle]ESRRAQEFIEWLLATGPESGAPPPS-OH
modifications: N-terminus assumed
SMILES: CCCC[C@H](NC(=O)[C@H](CCC(N)=O)NC(=O)[C@H](CCCCN)NC(=O)[C@H](CO)NC(=O)[C@@H](NC(=O)[C@H](CC(=O)O)NC(=O)[C@H](CO)NC(=O)[C@@H](NC(=O)[C@H](Cc1ccccc1)NC(=O)[C@@H](NC(=O)CNC(=O)[C@H](CCC(N)=O)NC(=O)[C@H](CO)NC(=O)[C@@H](N)Cc1cscn1)[C@@H](C)O)[C@@H](C)O)C1CCCCC1)C(=O)N[C@@H](CCC(=O)O)C(=O)N[C@@H](CO)C(=O)N[C@@H](CCCNC(=N)N)C(=O)N[C@@H](CCCNC(=N)N)C(=O)N[C@@H](C)C(=O)N[C@@H](CCC(N)=O)C(=O)N[C@@H](CCC(=O)O)C(=O)N[C@@H](Cc1ccccc1)C(=O)N[C@H](C(=O)N[C@@H](CCC(=O)O)C(=O)N[C@@H](Cc1c[nH]c2ccccc12)C(=O)N[C@@H](CC(C)C)C(=O)N[C@@H](CC(C)C)C(=O)N[C@@H](C)C(=O)N[C@H](C(=O)NCC(=O)N1CCC[C@H]1C(=O)N[C@@H](CCC(=O)O)C(=O)N[C@@H](CO)C(=O)NCC(=O)N[C@@H](C)C(=O)N1CCC[C@H]1C(=O)N1CCC[C@H]1C(=O)N1CCC[C@H]1C(=O)N[C@@H](CO)C(=O)O)[C@@H](C)O)[C@@H](C)CC
B5: SEQ ID NO: 26 (peptide)
peptide: HSQGTFTSDLSKQ[Nle]ESRRAQDFIEWLLATGPESGAPPPS-OH
modifications: N-terminus assumed
SMILES: CCCC[C@H](NC(=O)[C@H](CCC(N)=O)NC(=O)[C@H](CCCCN)NC(=O)[C@H](CO)NC(=O)[C@H](CC(C)C)NC(=O)[C@H](CC(=O)O)NC(=O)[C@H](CO)NC(=O)[C@@H](NC(=O)[C@H](Cc1ccccc1)NC(=O)[C@@H](NC(=O)CNC(=O)[C@H](CCC(N)=O)NC(=O)[C@H](CO)NC(=O)[C@@H](N)Cc1c[nH]cn1)[C@@H](C)O)[C@@H](C)O)C(=O)N[C@@H](CCC(=O)O)C(=O)N[C@@H](CO)C(=O)N[C@@H](CCCNC(=N)N)C(=O)N[C@@H](CCCNC(=N)N)C(=O)N[C@@H](C)C(=O)N[C@@H](CCC(N)=O)C(=O)N[C@@H](CC(=O)O)C(=O)N[C@@H](Cc1ccccc1)C(=O)N[C@H](C(=O)N[C@@H](CCC(=O)O)C(=O)N[C@@H](Cc1c[nH]c2ccccc12)C(=O)N[C@@H](CC(C)C)C(=O)N[C@@H](CC(C)C)C(=O)N[C@@H](C)C(=O)N[C@H](C(=O)NCC(=O)N1CCC[C@H]1C(=O)N[C@@H](CCC(=O)O)C(=O)N[C@@H](CO)C(=O)NCC(=O)N[C@@H](C)C(=O)N1CCC[C@H]1C(=O)N1CCC[C@H]1C(=O)N1CCC[C@H]1C(=O)N[C@@H](CO)C(=O)O)[C@@H](C)O)[C@@H](C)CC
B6: SEQ ID NO: 32 (peptide)
peptide: HSQGTFTSD[Phg]SKQLESRRAQEFIEWLLATGPESGAPPPS-OH
modifications: N-terminus assumed
SMILES: CC[C@H](C)[C@H](NC(=O)[C@H](Cc1ccccc1)NC(=O)[C@H](CCC(=O)O)NC(=O)[C@H](CCC(N)=O)NC(=O)[C@H](C)NC(=O)[C@H](CCCNC(=N)N)NC(=O)[C@H](CCCNC(=N)N)NC(=O)[C@H](CO)NC(=O)[C@H](CCC(=O)O)NC(=O)[C@H](CC(C)C)NC(=O)[C@H](CCC(N)=O)NC(=O)[C@H](CCCCN)NC(=O)[C@H](CO)NC(=O)[C@@H](NC(=O)[C@H](CC(=O)O)NC(=O)[C@H](CO)NC(=O)[C@@H](NC(=O)[C@H](Cc1ccccc1)NC(=O)[C@@H](NC(=O)CNC(=O)[C@H](CCC(N)=O)NC(=O)[C@H](CO)NC(=O)[C@@H](N)Cc1c[nH]cn1)[C@@H](C)O)[C@@H](C)O)c1ccccc1)C(=O)N[C@@H](CCC(=O)O)C(=O)N[C@@H](Cc1c[nH]c2ccccc12)C(=O)N[C@@H](CC(C)C)C(=O)N[C@@H](CC(C)C)C(=O)N[C@@H](C)C(=O)N[C@H](C(=O)NCC(=O)N1CCC[C@H]1C(=O)N[C@@H](CCC(=O)O)C(=O)N[C@@H](CO)C(=O)NCC(=O)N[C@@H](C)C(=O)N1CCC[C@H]1C(=O)N1CCC[C@H]1C(=O)N1CCC[C@H]1C(=O)N[C@@H](CO)C(=O)O)[C@@H](C)O

These binders were tested against T1, human GLP-1 receptor (human, UniProt P43220 24-463) (assay: cell-based or functional assay).

| Binder | EC50 hGLP-1 R [pM], cAMP formation [pM] |
| --- | --- |
| B1 | 23100 |
| B2 | 8570 |
| B3 | 50700 |
| B4 | 8310 |

These binders were tested against T2, human glucagon receptor (human, UniProt P47871 26-477) (assay: cell-based or functional assay).
T2 sequence (P47871 26-477): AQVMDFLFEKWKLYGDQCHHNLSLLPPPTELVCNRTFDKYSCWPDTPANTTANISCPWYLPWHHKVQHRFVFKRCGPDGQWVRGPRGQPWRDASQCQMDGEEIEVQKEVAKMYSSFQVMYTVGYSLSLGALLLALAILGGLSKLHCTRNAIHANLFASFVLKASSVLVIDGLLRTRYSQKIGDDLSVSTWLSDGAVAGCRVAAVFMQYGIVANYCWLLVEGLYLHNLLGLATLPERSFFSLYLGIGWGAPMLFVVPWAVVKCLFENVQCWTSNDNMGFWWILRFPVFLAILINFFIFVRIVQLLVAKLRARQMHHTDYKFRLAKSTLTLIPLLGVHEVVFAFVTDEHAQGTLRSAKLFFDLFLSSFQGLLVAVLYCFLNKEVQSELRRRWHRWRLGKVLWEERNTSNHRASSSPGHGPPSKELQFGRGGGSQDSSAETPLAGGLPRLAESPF

| Binder | EC50 hGLUC R [pM], cAMP formation [pM] |
| --- | --- |
| B1 | 0.8 |
| B2 | 1 |
| B3 | 3.5 |
| B4 | 0.7 |

Target: T1, human GLP-1 receptor
Test: cell-based or functional assay
Remark: another data set of the same source

| Binder | EC50 hGLP-1R, cAMP formation [nM] |
| --- | --- |
| HSQGTFTSDISKQLESRRAQEFIEWLLATGPESGAPPPS-OH [SEQ ID NO: 31] | 0.941 |
| HSQGTFTSDYSKQLESRRAQEFIEWLLATGPESGAPPPS-OH [SEQ ID NO: 29] | 0.145 |
| HSQGTFTSDVSKQLESRRAQEFIEWLLATGPESGAPPPS-OH [SEQ ID NO: 30] | 1.18 |
| HSQGTFTSDLSKQLESRRAQEFIEWLLAGGPESGAPPPS-OH [SEQ ID NO: 27] | 0.0808 |
| HSQGTFTSDYSKQLESRRAQEFIEWLLAGGPESGAPPPS-OH [SEQ ID NO: 28] | 0.0524 |
| B5 | 1.24 |
| B6 | 18.7 |

Target: T2, human glucagon receptor
Test: cell-based or functional assay
Remark: another data set of the same source

| Binder | EC50 hGlucagon-R, cAMP formation [nM] |
| --- | --- |
| HSQGTFTSDISKQLESRRAQEFIEWLLATGPESGAPPPS-OH [SEQ ID NO: 31] | 0.0041 |
| HSQGTFTSDYSKQLESRRAQEFIEWLLATGPESGAPPPS-OH [SEQ ID NO: 29] | 0.0009 |
| HSQGTFTSDVSKQLESRRAQEFIEWLLATGPESGAPPPS-OH [SEQ ID NO: 30] | 0.0065 |
| HSQGTFTSDLSKQLESRRAQEFIEWLLAGGPESGAPPPS-OH [SEQ ID NO: 27] | 0.0013 |
| HSQGTFTSDYSKQLESRRAQEFIEWLLAGGPESGAPPPS-OH [SEQ ID NO: 28] | 0.001 |
| B5 | 0.0094 |
| B6 | 0.012 |
